Results on ten molecules are retold here after patent publication EP3964526A1 (Novartis AG, dated 2022).

Substitutions are numbered along the chain they refer to.

The target of assay [1] is T1, recombinant human VEGF165 (PeproTech EC Ltd.) (human, UniProt P15692-4 27-191).
T1 construct: Amine-coupled to a CM4 sensor chip; also called hVEGF165
Nature of the assay: SPR BIAcore T100, hVEGF165 amine-coupled on CM4 chip, scFv as analyte.

Assay [2] deals with VEGF (as used in the VEGFR competition ELISA). Nature of the assay: competition ELISA against hVEGR1, EC50 ratio to reference Luc.
The next assay deals with T2, Human TNFa N-his trimers (human, UniProt P01375 77-233).
T2 construct: Captured at 5 nM on an NTA sensor chip by the N-terminal his-tags; also called His-tagged TNF (produced at ESBATech); not shown: N-terminal his-tag
Nature of the assay: SPR BIAcore T100, His-tagged human TNF trimers captured on NTA chip, scFv as analyte.

Assay [3] deals with VEGF (as used in the VEGFR competition ELISA). Nature of the assay: competition ELISA against hVEGR1, EC50 ratio to reference Luc; first of two values in the cell.
For assay [4] the target is unchanged. Description: competition ELISA against hVEGR1, EC50 ratio to reference Luc; second of two values in the cell.

Chain of VEGF (as used in the VEGFR competition ELISA) (P15692 whole entry): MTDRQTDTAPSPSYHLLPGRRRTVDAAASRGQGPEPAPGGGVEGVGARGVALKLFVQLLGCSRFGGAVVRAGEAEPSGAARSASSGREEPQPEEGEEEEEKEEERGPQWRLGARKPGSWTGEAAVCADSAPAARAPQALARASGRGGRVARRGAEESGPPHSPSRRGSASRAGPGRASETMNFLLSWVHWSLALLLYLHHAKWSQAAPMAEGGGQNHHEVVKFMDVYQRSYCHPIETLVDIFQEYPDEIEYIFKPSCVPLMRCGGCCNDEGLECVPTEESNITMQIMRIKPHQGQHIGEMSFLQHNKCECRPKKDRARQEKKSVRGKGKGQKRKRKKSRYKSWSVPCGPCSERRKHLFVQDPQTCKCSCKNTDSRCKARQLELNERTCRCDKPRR
T1 sequence (P15692 other isoform, or with tags, fused parts or gaps limits assumed): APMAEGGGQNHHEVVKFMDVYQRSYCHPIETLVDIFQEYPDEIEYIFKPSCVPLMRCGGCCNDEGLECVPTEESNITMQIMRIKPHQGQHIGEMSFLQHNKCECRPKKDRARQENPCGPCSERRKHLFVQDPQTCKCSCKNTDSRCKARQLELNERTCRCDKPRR
T2 sequence (P01375 77-233 limits assumed): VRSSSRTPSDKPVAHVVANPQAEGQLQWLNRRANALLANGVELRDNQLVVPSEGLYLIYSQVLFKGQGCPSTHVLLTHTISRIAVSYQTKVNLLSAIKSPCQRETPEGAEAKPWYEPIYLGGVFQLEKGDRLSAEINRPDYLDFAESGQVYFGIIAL

B1: 509-max (scFv)
chain: EIVMTQSPSTLSASVGDRVIITCQASQNIRIWLSWYQQKPGKAPKLLIYKASTLESGVPSRFSGSGSGTEFTLTISSLQPDDFATYYCQNNAHYSTNGGTFGQGTKLTVLGGGGGSGGGGSGGGGSGGGGSEVQLVESGGGLVQPGGSLRLSCTASGFSLSSYYMCWVRQAPGKGLEWVGCLDYVGDTDYASWAKGRFTISKDASKNTVYLQMNSLRAEDTAVYYCARTDDSRGWGLNIWGQGTLVTVSS
In the case of B1, in assay [1], the equilibrium dissociation constant (Kd) was 1.21 nM, the dissociation rate constant (koff) came to 0.00272 s⁻¹ and the kon worked out at 2.26e+06 M⁻¹ s⁻¹. For the same molecule, the “Rel. activity hVEGR1 comp. ELISA (EC50Luc[nM]/EC50test[nM])” value (“Rel. activity hVEGR1 comp. ELISA” below) in assay [2] stood at 13 ratio.

B2: 509-min (scFv)
chain: B1 chain with T69A, T154A, G180S, K202R, A204N, V209L, R228K
As to B2, in assay [1], the equilibrium dissociation constant (Kd) is 1.82 nM, the koff was found to be 0.00114 s⁻¹ and the kon amounted to 623000 M⁻¹ s⁻¹. Also, the “Rel. activity hVEGR1 comp. ELISA” value in assay [2] is 2.9 ratio.

B3: EP43_max (scFv)
chain: EIVMTQSPSTLSASVGDRVIIKCQASQSISDWLAWYQQKPGKAPKLLIYGASRLASGFPSRFSGSGSGAEFTLTISGLEPADFATYYCQQGWSDSYVDNLFGQGTKLTVLGGGGGSGGGGSGGGGSGGGGSEVQLVESGGGLVQPGGSLRLSCTVSGFSLSSGAMSWVRQAPGKGLEWVGVIISSGATYYASWAKGRFTISKDTSKNTVYLQMNSLRAEDTAVYYCARGGPDDSNSMGTFDPWGQGTLVTVSS
B3: in the assay with Human TNFa N-his trimers, binding was put at a Kd of 0.251 nM.

B4: EP42_max (scFv)
chain: EIVMTQSPSTLSASVGDRVIITCQSTESVYKNNYLAWYQQKPGKAPKLLIYDASTLASGVPSRFSGSGSGTEFTLTISSLQPDDFATYYCAGYYRSGFGTANGSFGQGTKLTVLGGGGGSGGGGSGGGGSGGGGSEVQLVESGGGSVQPGGSLRLSCTVSGIDLRNDAISWVRQAPGKGLEWVSYISDWGIKYYASWVKGRFTISKDTSKNTVYLQMNSLRAEDTATYYCARGAPGAGDNGIWGQGTTVTVSS
In the assay with Human TNFa N-his trimers, B4 returned a Kd of 3.46 nM.

B5: 511-min (scFv, V domains shown)
VH: EVQLVESGGGLVQPGGSLRLSCAASGFSLNTYYMNWVRQAPGKGLEWVSIIAPDDTTYYASWAKSRFTISRDNSKNTLYLQMNSLRAEDTAVYYCAKSGDTTAWGADIWGQGTLVTVSS
VL: EIVMTQSPSTLSASVGDRVIITCQASQSINIWCSWYQQKPGKAPKLLIYRASTLASGVPSRFSGSGSGAEFTLTISSLQPDDFATYYCQANYAYSAGYGAAFGQGTKLTVL
As to B5, in assay [1], the dissociation constant Kd is 2.53 nM, the koff was determined as 0.00128 s⁻¹ and the kon amounted to 505000 M⁻¹ s⁻¹. In addition, in assay [2], the “Rel. activity hVEGR1 comp. ELISA” value came out at 0.7 ratio.

B6: 578-min (scFv)
chain: EIVMTQSPSTLSASVGDRVIITCQASEIIHSWLAWYQQKPGKAPKLLIYLASTLASGVPSRFSGSGSGAEFTLTISSLQPDDFATYYCQNVYLASTNGANFGQGTKLTVLGGGGGSGGGGSGGGGSGGGGSEVQLVESGGGLVQPGGSLRLSCAASGFSLTDYYYMTWVRQAPGKGLEWVSFIDPDDDPYYATWAKGRFTISRDNSKNTLYLQMNSLRAEDTAVYYCAKGDHNSGWGLDIWGQGTLVTVSS
With B6, in assay [1], the dissociation constant Kd was determined as 9.01 nM, the off-rate constant (koff) turned out to be 0.0103 s⁻¹ and the kon stood at 1.14e+06 M⁻¹ s⁻¹. The “Rel. activity hVEGR1 comp. ELISA” value in assay [2] was found to be 4.8 ratio.

B7: 578-max (scFv)
chain: B6 chain with A69T, E70Q, A154T, S181G, N205T, L210V, K229G
With B7, in assay [1], the Kd was determined as 0.439 nM, the koff worked out at 0.000307 s⁻¹ and the kon was 700000 M⁻¹ s⁻¹. In assay [3], the “Rel. activity hVEGR1 comp. ELISA” value came to 35.5 ratio. The “Rel. activity hVEGR1 comp. ELISA” value in assay [4] was found to be 51.6 ratio.

B8: 567-min (scFv)
chain: EIVMTQSPSTLSASVGDRVIITCQADQSIYIWLSWYQQKPGKAPKLLIYKASTLESGVPSRFSGSGSGAEFTLTISSLQPDDFATYYCQNNAHYSTNGGTFGQGTKLTVLGGGGGSGGGGSGGGGSGGGGSEVQLVESGGGLVQPGGSLRLSCAASGFSLSDYYMCWVRQAPGKGLEWVSCLDYFGSTDDASWAKGRFTISRDNSKNTLYLQMNSLRAEDTAVYYCAKTDDSRGWGLNIWGQGTLVTVSS
In the case of B8, in assay [1], the equilibrium dissociation constant (Kd) was 0.23 nM, the koff stood at 0.000461 s⁻¹ and the kon turned out to be 2.01e+06 M⁻¹ s⁻¹. Further, the “Rel. activity hVEGR1 comp. ELISA” value in assay [2] was 57 ratio.

B9: 567-max (scFv)
chain: B8 chain with A69T, E70Q, A154S, A155V, S180G, R202K, N204T, L209V, K228R
Turning to B9, in assay [1], the equilibrium dissociation constant (Kd) was 0.188 nM, the dissociation rate constant (koff) amounted to 0.000226 s⁻¹ and the on-rate (kon) was 1.2e+06 M⁻¹ s⁻¹. In addition, in assay [3], the “Rel. activity hVEGR1 comp. ELISA” value worked out at 15.7 ratio. Further, in assay [4], the “Rel. activity hVEGR1 comp. ELISA” value stood at 54.5 ratio.

B10: 511-max (scFv)
chain: EIVMTQSPSTLSASVGDRVIITCQASQSINIWLSWYQQKPGKAPKLLIYRASTLASGVPSRFSGSGSGTEFTLTISSLQPDDFATYYCQANYAYSAGYGAAFGQGTKLTVLGGGGGSGGGGSGGGGSGGGGSEVQLVESGGGLVQPGGSLRLSCTVSGFSLNTYYMNWVRQAPGKGLEWVGIIAPDDTTYYASWAKSRSTISRDTSKNTVYLQMNSLRAEDTAVYYCARSGDTTAWGADIWGQGTLVTVSS
B10: in assay [1], the Kd is 0.0667 nM, the koff was 4.4e-05 s⁻¹ and the on-rate constant (kon) came to 659000 M⁻¹ s⁻¹. Also, the “Rel. activity hVEGR1 comp. ELISA” value in assay [2] was 8 ratio.
